Laboratory results taken from patent publication US20230357364A1.

What was measured:
[1] = molecular target: SARS-CoV-1 spike on pseudovirus (SARS-CoV-1) (UniProt P59594); assay: cell-based or functional assay
[2] = molecular target: SARS-CoV-2 spike on pseudovirus or live virus (USA-WA1/2020, WT) (SARS-CoV-2) (UniProt P0DTC2); assay: cell-based or functional assay

| Substance | PSV in HeLa-ACE2 cells IC50 [1] [ng/mL] | PSV in HeLa-ACE2 cells IC50 [2] [ng/mL] | live virus IC50 (HeLa-ACE2) [2] [ng/mL] | live virus IC50 (Vero) [2] [ng/mL] |
| --- | --- | --- | --- | --- |
| REGN10933 (antibody) | > 25000 | 6 | 2 | 1 |
| REGN10987 (antibody) | > 25000 | 93 | 5 | 1 |
